Where a chain is given by its changes, count along the chain named. Read-outs that look alike come from different tables or passages of the source.
Key:
human IL-4 [1] = molecular target: T1, human IL-4 (human, UniProt P05112 25-153); assay: cell-based or functional assay
T1 sequence (looked up): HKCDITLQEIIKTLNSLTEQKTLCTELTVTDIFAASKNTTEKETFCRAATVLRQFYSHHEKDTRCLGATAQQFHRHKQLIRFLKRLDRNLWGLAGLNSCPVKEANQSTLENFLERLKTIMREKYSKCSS

human IL-4 [2] = molecular target: T1, human IL-4; assay: cell-based or functional assay; remark: listed apart in the source
recombinant human IL-4 [3] = molecular target: T2, recombinant human IL-4 (human, UniProt P05112 25-153); assay: cell-based or functional assay
T2 sequence (looked up): T1 sequence (looked up)

recombinant human IL-13 [4] = molecular target: T3, recombinant human IL-13 (human, UniProt P35225 35-146); assay: cell-based or functional assay
T3 sequence (P35225 35-146 limits assumed): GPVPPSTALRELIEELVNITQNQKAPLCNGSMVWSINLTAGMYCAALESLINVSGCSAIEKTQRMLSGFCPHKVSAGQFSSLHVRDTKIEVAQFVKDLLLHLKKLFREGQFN

recombinant human IL-33 [5] = molecular target: T4, recombinant human IL-33 (human, UniProt O95760 112-270, limits assumed); assay: cell-based or functional assay
T4 sequence (looked up): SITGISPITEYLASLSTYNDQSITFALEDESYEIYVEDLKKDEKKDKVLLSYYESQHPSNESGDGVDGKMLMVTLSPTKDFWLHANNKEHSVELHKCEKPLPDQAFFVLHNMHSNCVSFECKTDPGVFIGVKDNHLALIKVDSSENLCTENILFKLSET

recombinant human IL-4 [6] = molecular target: T2, recombinant human IL-4; assay: cell-based or functional assay; remark: listed apart in the source
recombinant human IL-4 [7] = molecular target: T2, recombinant human IL-4; assay: cell-based or functional assay; remark: listed apart in the source
[8] = molecular target: T5, recombinant cynomolgus monkey IL-4 (cynomolgus monkey, UniProt P79339 25-153); assay: cell-based or functional assay
T5 sequence (looked up): T1 sequence (looked up) with E26K, V29I, F33L

recombinant human IL-4 [9] = molecular target: T2, recombinant human IL-4; assay: cell-based or functional assay; remark: listed apart in the source
recombinant human IL-13 [10] = molecular target: T3, recombinant human IL-13; assay: cell-based or functional assay; remark: listed apart in the source
recombinant human IL-13 [11] = molecular target: T3, recombinant human IL-13; assay: cell-based or functional assay; remark: listed apart in the source
[12] = molecular target: T6, recombinant cynomolgus monkey IL-13 (cynomolgus monkey, UniProt Q0PW92 19-132); assay: cell-based or functional assay
T6 sequence (Q0PW92 entry or part of it limits assumed): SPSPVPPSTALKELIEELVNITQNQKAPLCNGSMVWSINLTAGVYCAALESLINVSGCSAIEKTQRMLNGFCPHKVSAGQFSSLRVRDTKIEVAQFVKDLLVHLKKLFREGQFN

recombinant human IL-13 [13] = molecular target: T3, recombinant human IL-13; assay: cell-based or functional assay; remark: listed apart in the source
recombinant human IL-33 [14] = molecular target: T4, recombinant human IL-33; assay: cell-based or functional assay; remark: listed apart in the source
IL-33 mm2 = molecular target: T7, IL-33 mm2 (human, UniProt O95760 112-270, limits assumed); assay: cell-based or functional assay
T7 sequence (looked up): T4 sequence (looked up) with C97S, C116S, C121S, C148S

recombinant human IL-4 [15] = molecular target: T2, recombinant human IL-4; assay: KinExA, fixed antigen format
Protocol: (§1) Samples were prepared in PBS containing 0.1% sodium azide and 1.0 mg/ml BSA. The fixed antigen assay method was used to determine binding affinity. […] Each trispecific and IL-4 cytokine were equilibrated for at least 72 hours at room temperature, then passed through a flow cell containing Polymethylmethacrylate (PMMA) beads coated with anti-hIL-4 Ab-0002 (Pfizer) that contains the same IL-4 binding domain as the trispecifics. […] Data analysis was performed with KinExA Pro software version 4.3.11 (Sapidyne). […] The ‘drift correction’ fitting option was used when responses varied between replicate injections. Two curves were obtained in independent experiments and analyzed using the ‘n-curve analysis’ tool to obtain global best fit values for the KD and active concentration of IL-4 cytokine. The software reports each best fit value along with a 95% confidence interval.

[16] = molecular target: T5, recombinant cynomolgus monkey IL-4; assay: KinExA, fixed antigen format
Protocol: as §1

recombinant human IL-13 [17] = molecular target: T3, recombinant human IL-13; assay: KinExA, fixed antigen format
Protocol: (§2) Samples were prepared in PBS containing 0.1% sodium azide and 1.0 mg/ml BSA. The fixed antigen assay method was used to determine binding affinity. […] Data analysis was performed with KinExA Pro software version 4.3.11 (Sapidyne). […] The ‘drift correction’ fitting option was used when responses varied between replicate injections. Two curves were obtained in independent experiments and analyzed using the ‘n-curve analysis’ tool to obtain global best fit values for the KD and active concentration of IL-13 cytokine. The software reports each best fit value along with a 95% confidence interval.

[18] = molecular target: T6, recombinant cynomolgus monkey IL-13; assay: KinExA, fixed antigen format
Protocol: as §2

human IL-33 = molecular target: T8, human IL-33 (human, UniProt O95760 112-270, limits assumed); assay: KinExA solution affinity, fixed antigen format
T8 construct: Limits stated for the R&D protein; also called human IL-33 WT; reduced human IL-33
T8 sequence (looked up): T4 sequence (looked up)
Protocol: Samples were prepared in PBS containing 0.1% sodium azide and 1.0 mg/mL bovine serum albumin (BSA). […] The fixed active binding concentrations (ABC) of biotinylated human IL 33 used were 10 pM and 100 pM. Biotinylated human IL-33 wild-type (WT) was reduced with 3 mM Dithiothreitol (DTT) for 2 hours at room temperature before use. The samples were allowed to equilibrate for at least 72 hours at room temperature before passing them through a flow cell that contained the test article anti-IL-33 antibody being evaluated adsorbed to polymethylmethacrylate (PMMA) beads (Sapidyne). […] Data analysis was performed with KinExA Pro software version 4.3.11 (Sapidyne). […] The ‘drift correction’ fitting option was used when responses varied between replicate injections. Two curves were obtained in independent experiments and analyzed using the ‘n-curve analysis’ tool to obtain global best fit values for the KD and active concentration of IL-33 cytokine. The software reports each best fit value along with a 95% confidence interval.

B1: IL4-1284 (antibody, human IgG1, kappa, V domains shown)
VH: QVTLRESGPALVKPTQTLTLTCTFSGFSLSTSGMGVSWIRQPPGKGLEWLAHIYWDDDKRYNPSLKSRLTISKDTSRNQVVLTMTNMDPVDTATYYCARRETVFYWYFDVWGRGTPVTVSS
VL: DIVMTQSPDSLAVSLGERATINCKASQSVDYDGDSYMNWYQQKPGQPPKLLIYAASNLESGVPDRFSGSGSGTDFTLTISSLQAEDVAVYYCQQSNEDPPRFGGGTKVEIKR
B1 was tested, and the “pSTAT6 IC50 [pM]” value (human IL-4 [1]) was 125 pM, the “pSTAT6: Fold bioactivity relative to IL4-1284” value (human IL-4 [2]) was 1 fold and the “pSTAT6: Fold bioactivity relative to IL4-1285” value (human IL-4 [2]) was 0.6 fold. The “pSTAT6 IC50 [pM]” value (human IL-4 [2]) was 125 pM.

B2: IL13433-1258 (other)
heavy: EVQLVESGGGLVQPGGSLRLSCAASGFTFSSYWMYWVRQAPGKGLEWVAAITPNAGEDYYPESVKGRFTISRDNAKNSLYLQMNSLRAEDTAVYYCARGQYYYTKYSLGYWGQGTLVTVSSASTKGPSVFPLAPSSKSTSGGTAALGCLVKDYFPEPVTVSWNSGALTSGVHTFPAVLQSSGLYSLSSVVTVPSSSLGTQTYICNVNHKPSNTKVDKKVEPKSCRKTHTCPPCPAPEAAGAPSVFLFPPKPKDTLMISRTPEVTCVVVDVSHEDPEVKFNWYVDGVEVHNAKTKPREEQYNSTYRVVSVLTVLHQDWLNGKEYKCKVSNKALPAPIEKTISKAKGQPREPQVYTLPPSREEMTKNQVSLTCLVKGFYPSDIAVEWESNGQPENNYKTTPPVLDSDGSFFLYSRLTVDKSRWQQGNVFSCSVLHEALHSHYTQKSLSLSPGK
chain 1: DIQMTQSPSSLSASVGDRVTITCKASESVDHFGWSLVHWYQQKPGKAPKLLIYRASNLESGVPSRFSGSGSGTDFTLTISSLQPEDFATYYCQQSNEDPWTFGGGTKVEIKRTVAAPSVFIFPPSDEQLKSGTASVVCLLNNFYPREAKVQWKVDNALQSGNSQESVTEQDSKDSTYSLSSTLTLSKADYEKHKVYACEVTHQGLSSPVTKSFNRGECGGGGSEVTLRESGPALVKPTQTLTLTCTFSGFSLSNFGEGLSWIRQPPGKGLEWLAHIYWDDDKRYNPSLKSRLTISKDTSRNQVVLTMTNMDPVDTATYYCARRETVFYWYFDVWGQGTTVTVSSASTKGPSVFPLAPSSKSTSGGTAALGCLVKDYFPEPVTVSWNSGALTSGVHTFPAVLQSSGLYSLSSVVTVPSSSLGTQTYICNVNHKPSNTKVDKKVEPKSCEKTHTCPPCPAPEAAGAPSVFLFPPKPKDTLMISRTPEVTCVVVDVSHEDPEVKFNWYVDGVEVHNAKTKPREEQYNSTYRVVSVLTVLHQDWLNGKEYKCKVSNKALPAPIEKTISKAKGQPREPQVYTLPPSREEMTKNQVSLTCEVKGFYPSDIAVEWESNGQPENNYKTTPPVLDSDGSFFLYSKLTVDKSRWQQGNVFSCSVLHEALHSHYTQKSLSLSPGK
light 1: DIQMTQSPSSLSASVGDRVTITCRASQPIHNHLDWYQQKPGKAPKLLIYFGKNLQEGVPSRFSGSGSGTDFTLTISSLQPEDFATYYCFQYKKGWSFGGGTKVEIKRTVAAPSVFIFPPSDEQLKSGTASVVCLLNNFYPREAKVQWKVDNALQSGNSQESVTEQDSKDSTYSLSSTLTLSKADYEKHKVYACEVTHQGLSSPVTKSFNRGEC
light 2: DIQMTQSPSSLSASVGDRVTITCRASQSVDEEGDSYMNWYQQKPGKAPKLLIYAASNLESGVPSRFSGSGSGTDFTLTISSLQPEDFATYYCQQSNKDPPTFGGGTKVEIKRTVAAPSVFIFPPSDEQLKSGTASVVCLLNNFYPREAKVQWKVDNALQSGNSQESVTEQDSKDSTYSLSSTLTLSKADYEKHKVYACEVTHQGLSSPVTKSFNRGEC
chain 2: EVQLVESGGGLVQPGGSLRLSCAASGFTFSSYAMSWVRQAPGKGLEWVASISSGDTTYYPDSVKGRFTISRDNAKNSLYLQMNSLRAEDTAVYYCARNEGYYFGLTLWGQGTLVTVSSASTKGPSVFPLAPSSKSTSGGTAALGCLVKDYFPEPVTVSWNSGALTSGVHTFPAVLQSSGLYSLSSVVTVPSSSLGTQTYICNVNHKPSNTKVDKKVEPKSC
notes: Trispecific Tri-Fab-Fc, dual cell, EE/RR, LS; Chains in order: SFab HC(3), DFab LC(1)-HC(2), SFab LC(3), DFab LC(2), modified Fd(1)
With B2 the “IL-4 Induced CD23 Expression, potency of cytokine neutralization” value (recombinant human IL-4 [3]) was 0.013 nM, the “IL-13 Induced CD23 Expression, potency of cytokine neutralization” value (recombinant human IL-13 [4]) was 0.00935 nM and the “IL-33 WT Activation of SEAP Reporter Cells, potency of cytokine neutralization” value (recombinant human IL-33 [5]) was 0.013 nM. The “IC50 (median), IL-4 induced CD23 expression on human monocytes” value (recombinant human IL-4 [6]) was 0.01 nM, the “IC50 (median), CD23 expression, Human Whole Blood” value (shortened to “IC50 (median) … Human Whole Blood”) (recombinant human IL-4 [7]) was 0.0232 nM and the “IC50 (median), CD23 expression, Peripheral Blood Monocytes” value (from here on “IC50 … Peripheral Blood Monocytes”) (recombinant human IL-4 [7]) was 0.01 nM. For the same binder, the “IC50 (median) … Human Whole Blood” value [8] was 0.0321 nM, the “IC50 … Peripheral Blood Monocytes” value [8] was 0.0136 nM and the “IC50 (median), IL-4 induced CD23 expression on human monocytes” value (recombinant human IL-4 [9]) was 0.01 nM. For the same binder, the “IC50 (median), IL-13 induced CD23 expression on human monocytes” value (recombinant human IL-13 [10]) was 0.0117 nM, the “IC50 (median) … Human Whole Blood” value (recombinant human IL-13 [11]) was 0.0161 nM and the “IC50 … Peripheral Blood Monocytes” value (recombinant human IL-13 [11]) was 0.0117 nM. The “IC50 (median) … Human Whole Blood” value [12] was 0.0505 nM, the “IC50 … Peripheral Blood Monocytes” value [12] was 0.0528 nM and the “IC50 (median), IL-13 induced CD23 expression on human monocytes” value (recombinant human IL-13 [13]) was 0.0117 nM. The “IC50 (mean), HEK-Blue IL-33 SEAP” value (recombinant human IL-33 [14]) was 0.0134 nM, the “IC50 (mean), IFNg Whole Blood (IL-12 plus IL-33 mm2-Cys)” value (IL-33 mm2) was 0.0125 nM and the Kd (recombinant human IL-4 [15]) was 0.000477 nM. For the same binder, the Kd [16] was 0.00296 nM, the Kd (recombinant human IL-13 [17]) was 0.000612 nM and the Kd [18] was 0.000866 nM.

B3: IL33-0726 (antibody, human IgG1, kappa, V domains shown)
VH: EVQLVESGGGLVQPGGSLRLSCAASGFTFSSYWMYWVRQAPGKGLEWVAAITPNAGEDYYPESVKGRFTISRDNAKNSLYLQMNSLRAEDTAVYYCARGQYYYTKYSLGYWGQGTLVTVSS
VL: DIQMTQSPSSLSASVGDRVTITCRASQPIHNHLDWYQQKPGKAPKLLIYFGKNLQEGVPSRFSGSGSGTDFTLTISSLQPEDFATYYCFQYKKGWSFGGGTKVEIKR
notes: also called IL13433-0726; IL33-0726 IgG
In the case of B3, the “fold higher affinity relative to the IL33-0352 benchmark antibody” value (human IL-33) is reported as about 3 fold and the “fold higher affinity than IL33-0232 antibody” value (human IL-33) is reported as about 14 fold.
